Data reported in PMC5100602.

Biological target: Gk-S15 (ribosomal protein S15) (Geobacillus kaustophilus) (UniProt Q5L0I3)
Assay: filter binding
Conditions: SELEX Binding Buffer A: 50 mM Tris/acetate pH 7.5, 20 mM Mg-acetate, 270 mM KCl, 5 mM DTT, 0.02% BSA, 25 C, 30 min; filter binding (nitrocellulose/nylon) as …

Q: Gk-mRNA was tested. Which Kd did it give?
A: The Kd was 0.7 nM.
